Test results from the Human Domainome abundance scans (Beltran et al. 2025).
± gives the uncertainty stated by the source.

B1: Syntaxin-binding protein 4, residues 493 to 538; numbered along this chain, Q6ZWJ1 (parent)
chain: LDMDCLPYGWEEAYTADGIKYFINHVTQTTSWIHPVMSVLNLSRSE

Variants of: B1
Experiment: abundance fitness (aPCA) (normalised: wild type 0, dead -1); higher = more abundant; growth selection in yeast, the domain comes from the species named
Settings: Homo sapiens

Abundance fitness, by site and new letter:
M37: R 0.558 ± 0.079 | S 0.28 ± 0.09 | E 0.327 ± 0.095 | K 0.38 ± 0.11
L40: A -0.127 ± 0.11 | Y -0.584 ± 0.16 | I -0.816 ± 0.16 | W -0.136 ± 0.1 | K 0.041 ± 0.11 | N 0.04 ± 0.15 | V -0.273 ± 0.096 | G 0.164 ± 0.085 | F -0.304 ± 0.14 | D -0.471 ± 0.17 | Q 0.046 ± 0.11 | T -0.319 ± 0.11 | H 0.07 ± 0.19 | E 0.111 ± 0.11 | C -0.154 ± 0.11 | P 0.067 ± 0.11 | S 0.139 ± 0.085 | R -0.003 ± 0.082
I33: W -0.743 ± 0.13 | H -0.084 ± 0.14 | L -0.245 ± 0.089 | S 0.1 ± 0.1 | Q 0.064 ± 0.14 | G -0.199 ± 0.088 | F -0.549 ± 0.22 | N -0.243 ± 0.19 | K -0.276 ± 0.13 | R -0.481 ± 0.094 | M -0.091 ± 0.15 | Y -0.162 ± 0.17 | P -0.897 ± 0.15 | T -0.075 ± 0.12
L42: C 0.025 ± 0.12 | M -0.046 ± 0.11 | P -0.304 ± 0.14 | R 0.108 ± 0.085 | H 0.52 ± 0.14 | E 0.198 ± 0.1 | A -0.05 ± 0.088 | S 0.162 ± 0.095 | D 0.022 ± 0.14 | K 0.16 ± 0.12 | T 0.048 ± 0.12 | N 0.578 ± 0.12 | V 0.052 ± 0.081 | G 0.174 ± 0.077
P35: R -0.88 ± 0.097 | I -0.82 ± 0.16 | V -0.882 ± 0.1 | Q -0.72 ± 0.14 | Y -0.369 ± 0.15 | T -0.686 ± 0.16 | H -0.83 ± 0.15 | C -1.06 ± 0.21 | M -0.814 ± 0.14 | F -0.895 ± 0.16 | N -0.862 ± 0.18 | W -0.775 ± 0.16 | K -0.533 ± 0.15 | E -0.634 ± 0.15 | A -1.01 ± 0.11 | S -0.661 ± 0.11
S38: N -0.046 ± 0.13 | Q -0.697 ± 0.15 | I -0.845 ± 0.23 | T -0.75 ± 0.13 | V -0.502 ± 0.094 | A -0.649 ± 0.1 | R -0.418 ± 0.085 | P -0.141 ± 0.097 | D -0.004 ± 0.13 | H -0.678 ± 0.21 | Y -0.376 ± 0.14 | F -0.531 ± 0.13 | C -0.567 ± 0.14 | E -0.693 ± 0.13 | K -0.479 ± 0.11 | W -0.264 ± 0.1 | M -0.663 ± 0.13 | L -0.78 ± 0.11
